# In doi:10.1101/2025.10.27.684941:
# How the values were obtained:
# [1] = molecular target: biotinylated C-terminal Cx36 peptide, D317A (UniProt O54851); experiment: pull-down
# [2] = molecular target: biotinylated C-terminal Cx36 peptide, D317F (UniProt O54851); experiment: pull-down
# [3] = molecular target: Venus-PDZ1 (ZO-1) (human) (UniProt Q07157); experiment: co-IP
# Sequence of UniProt Q07157 (Q07157 whole entry): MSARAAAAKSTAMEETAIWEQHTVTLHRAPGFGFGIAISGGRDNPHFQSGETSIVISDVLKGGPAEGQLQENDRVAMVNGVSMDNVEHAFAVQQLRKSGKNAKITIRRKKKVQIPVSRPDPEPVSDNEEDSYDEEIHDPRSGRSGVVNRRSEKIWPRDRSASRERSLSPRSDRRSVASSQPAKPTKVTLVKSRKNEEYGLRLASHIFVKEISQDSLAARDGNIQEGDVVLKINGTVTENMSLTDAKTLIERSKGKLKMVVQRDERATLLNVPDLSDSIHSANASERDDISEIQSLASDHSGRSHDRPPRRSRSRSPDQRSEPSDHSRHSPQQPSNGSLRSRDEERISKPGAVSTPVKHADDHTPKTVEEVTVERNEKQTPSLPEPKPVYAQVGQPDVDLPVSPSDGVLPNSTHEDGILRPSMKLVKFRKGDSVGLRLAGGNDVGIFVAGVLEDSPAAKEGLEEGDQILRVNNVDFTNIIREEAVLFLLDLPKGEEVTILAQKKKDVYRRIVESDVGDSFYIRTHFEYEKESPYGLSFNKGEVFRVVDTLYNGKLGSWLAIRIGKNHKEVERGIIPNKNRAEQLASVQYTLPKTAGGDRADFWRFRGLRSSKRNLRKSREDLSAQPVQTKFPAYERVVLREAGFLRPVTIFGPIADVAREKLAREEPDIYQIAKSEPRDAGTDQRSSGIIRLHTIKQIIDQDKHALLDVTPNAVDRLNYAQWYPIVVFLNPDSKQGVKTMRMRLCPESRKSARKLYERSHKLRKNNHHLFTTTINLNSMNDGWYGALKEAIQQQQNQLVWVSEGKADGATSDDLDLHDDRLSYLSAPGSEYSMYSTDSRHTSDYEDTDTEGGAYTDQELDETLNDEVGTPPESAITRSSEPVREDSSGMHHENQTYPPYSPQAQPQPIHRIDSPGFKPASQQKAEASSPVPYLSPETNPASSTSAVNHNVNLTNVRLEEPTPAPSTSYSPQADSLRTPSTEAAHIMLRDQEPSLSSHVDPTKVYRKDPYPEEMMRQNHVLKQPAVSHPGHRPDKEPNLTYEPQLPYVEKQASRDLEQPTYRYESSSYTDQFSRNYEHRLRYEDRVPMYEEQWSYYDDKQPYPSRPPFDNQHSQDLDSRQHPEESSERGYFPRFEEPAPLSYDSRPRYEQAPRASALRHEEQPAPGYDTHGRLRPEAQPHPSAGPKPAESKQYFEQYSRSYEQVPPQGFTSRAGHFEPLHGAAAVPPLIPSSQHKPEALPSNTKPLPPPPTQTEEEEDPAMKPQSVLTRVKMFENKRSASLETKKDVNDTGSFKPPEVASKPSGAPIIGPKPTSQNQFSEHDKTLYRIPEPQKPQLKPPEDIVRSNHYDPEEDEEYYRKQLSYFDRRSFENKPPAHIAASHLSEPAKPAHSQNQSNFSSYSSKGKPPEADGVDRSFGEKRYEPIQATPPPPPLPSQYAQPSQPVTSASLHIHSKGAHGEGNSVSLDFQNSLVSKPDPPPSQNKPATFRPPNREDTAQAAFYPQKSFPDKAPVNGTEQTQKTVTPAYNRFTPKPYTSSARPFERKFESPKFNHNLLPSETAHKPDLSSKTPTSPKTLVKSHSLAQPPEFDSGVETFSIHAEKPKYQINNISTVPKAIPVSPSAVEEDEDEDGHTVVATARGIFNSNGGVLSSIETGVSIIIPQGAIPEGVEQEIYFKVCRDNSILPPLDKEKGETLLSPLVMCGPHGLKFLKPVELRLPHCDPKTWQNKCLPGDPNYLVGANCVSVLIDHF
fold increase in binding over the wild-type peptide [1] [fold],fold increase in binding over the wild-type peptide [2] [fold],fold increase in binding over wild type Cx36 [3] [times],Substance
5,10,–,His-Venus-PDZ1 (ZO-1) (domain or fragment)
–,–,5 to 7,Cx36 D317F (from UniProt O54851 1-321) (natural protein)
–,–,5 to 7,Cx36 D317A (from UniProt O54851 1-321) (natural protein)
